The values that follow come from patent US7141434B2, “Methods of identifying compounds that modulate IL-4 receptor-mediated IgE synthesis utilizing an adenosine kinase” (Rigel Pharmaceuticals, Inc., priority 2002, dated 2006).

Experiment [1] addresses T1, human AK (hAK) (Homo sapiens, UniProt P55263).
T1 construct: expressed in transfected cells; prey cDNA from the A5T4 reporter cell line (derived from BJAB B-cells)
Put plainly: β-galactosidase yeast two hybrid (YTH) interaction assay. The experiment is classed as binding. As to conditions: qualitative. As for the experimental part:
Potential binding partners for peptide AR02E8 wt were identified in a β-galactosidase yeast two-hybrid (YTH) assay using peptide AR02E8 wt as bait and a cDNA library constructed from the A5T4 reporter cell line as prey. Binding was assessed by β-galactosidase quantification using BetaFluor (Novagen) as a substrate. A negative interaction control (no cDNA fused downstream of the GAL4 activation domain sequence) was also run. A general outline of the YTH assay is illustrated in FIG. 5A. Following clustering, filtering to remove non-specific bait hits (e.g., GFP and BFP), singletons and clusters recognized by 10 or more cDNA baits (based upon historical YTH assays), and prioritization, 45 prey clones were identified as hits.
Potential targets identified in the YTH assay were reconfirmed as generally outlined in FIG. 6. The cDNA clones identified as hits in the YTH assay were purified and rescreened for interaction with the AR02E8 wt peptide in a YTH assay. The hit clones were also screened in a control assay for interaction with the BFP using a vector (pGBKT7) that contained only the BFP and not the AR02E8 peptide. At this stage, 27 putative target clones remained.
The interaction of AR02E8 wt peptide and its mutants with the clones identified as potential targets for the peptide AR02E8 wt was then quantified in a β-galactosidase YTH assay. The YTH assay was performed in the manner described above. A general outline of this YTH assay is illustrated in FIG. 5B. For each clone tested, an interaction profile was developed by comparing the β-galactosidase activity of each mutant to that of the wild type peptide as described above.
The interaction of these IOF, ROF and LOF mutants with different polypeptides encoded by the putative target clones were quantified using the YTH assay described above. […]

In experiment [2] the test system is IL-4 induced germline ε transcription (ε promoter reporter in A5T4 cells). Put plainly: Re-infection of naive A5T4 reporter cells with BFP-peptide fusion (GFP reporter ratio). The format is cell-based, human. As to conditions: based on reporter ratio; % change calculated after subtracting 1.0 from the ratios. As for the experimental part: The ability of peptide AR02E8 wt to inhibit germline ε transcription was confirmed in naive cells. Briefly, Phoenix cells were transfected with a retroviral vector encoding a BFP-AR02E8 wt peptide fusion as described in WO 99/58663 and WO 97/27213. Naïve A5T4 cells were infected with the resultant virions and grown for 3 days. The infected cells were stimulated with IL-4 (60 U/mL) and, after 3 days, the cells were assessed by FACS for BFP and GFP. […] The BFP fluorescence data corresponding to the BFP^+ and BFP^− populations are provided in Panel A. The GFP fluorescence data corresponding to the BFP^+ and BFP-populations are presented in Panel B. The reporter ratio for this purpose is determined as the geometric mean of the GFP fluorescence of the BFP^− population divided by the geometric mean of the GFP fluorescence of the BFP^+ population. The reporter ratio for the AR02E8 in this re-infection assay was 2.93. […]
TABLE 2 depicts the amino acid sequences (the dual alanine/glycine mutations are underlined) of the mutants tested and the measured reporter ratios when screening in the A5T4 reporter line.

Experiment [3] has as its system ST486 endogenous α promoter. Put plainly: TAQMAN assay of endogenous germline α promoter transcription in ST486 cells. The experiment is classed as cell-based. The note with it: ST486 cells stimulated with TGF-β 40 ng/ml; average of 3 values; p=0.1120. As for the experimental part:
The assay was similar to that described in the immediately preceding section, except that ST486 cells (ATCC # CRL-1647) engineered to express the tetracycline-regulated transactivator were infected and the infected cells were stimulated with TGF-β (40 ng/ml; Peprotech). The primers and probe, which are specific for the transcription product driven by the ST486 endogenous α promoter, were as follows (the probe was labeled at the 5′-end with Fam and at the 3′-end with Tamra): […]
For orientation: Quantitative PCR measures a nucleic acid by following its amplification.

T1 sequence (P55263 whole entry): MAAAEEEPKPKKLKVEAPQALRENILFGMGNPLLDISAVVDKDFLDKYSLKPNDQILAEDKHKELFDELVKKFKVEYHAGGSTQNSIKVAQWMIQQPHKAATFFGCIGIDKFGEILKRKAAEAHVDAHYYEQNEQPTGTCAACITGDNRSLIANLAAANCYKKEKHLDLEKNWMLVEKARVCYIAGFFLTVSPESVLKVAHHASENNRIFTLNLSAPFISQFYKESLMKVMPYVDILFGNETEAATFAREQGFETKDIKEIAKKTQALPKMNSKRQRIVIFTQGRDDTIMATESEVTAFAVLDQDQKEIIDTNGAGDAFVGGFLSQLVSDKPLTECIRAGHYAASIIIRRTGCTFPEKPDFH

With “DTMQVQCGAGRSGYVVAFWDVGP (peptide encoded by synthetic oligomer) [AR02E8VC, dual alanine/glycine mutant of AR02E8 wt]”, the “binding to human AK in yeast two hybrid interaction assay” value (shortened to “binding to human AK”) in experiment [1] is “found to bind human AK (hAK)”. Consider “DTMQVQCGVCAGGYVVAFWDVGP (peptide encoded by synthetic oligomer) [AR02E8RS, dual alanine/glycine mutant of AR02E8 wt]”, for which the “binding to human AK” value in experiment [1] is given as “found to bind human AK (hAK)”. For the sequence “DTMQVQCGVCRSGAGVAFWDVGP (peptide encoded by synthetic oligomer) [AR02E8YV, dual alanine/glycine mutant of AR02E8 wt, loss of function]”, the “functional category as compared to the wild type peptide” value in experiment [2] is “LOF (Cells expressing a loss of function (LOF) mutant have a reporter ratio of <1.11)”. Consider “DTMQVQCGVCRSGYVVAFWDVGP (peptide encoded by synthetic oligomer) [AR02E8 wt, 23-residue peptide from a random retroviral library, expressed as BFP-peptide fusion]”, for which the “endogenous α inhibition ratio” value in experiment [3] stood at 0.79. In addition, in experiment [1], the “binding to human AK” value is “found to bind human AK (hAK)”.
